# Experiments:
# [1] = target: T1, PEDV S protein of strain PEDV-JSXH-2021 in infected Vero E6 cells (Porcine epidemic diarrhea virus, …, UniProt Q91AV1, strain); assay: cell-based or functional assay
# [2] = target: T2, Recombinant PEDV S protein, strain PEDV-JSXH-2021, 3 × FLAG (pFastBac1-PEDV-S, rBV-PEDV-S) (Porcine epidemic diarrhea virus, …, UniProt Q91AV1, strain); assay: immunostaining of cells or tissue; IFA on Sf9 cells infected with rBV-PEDV-S (MOI 0.1, 48 h), fixed with 4% paraformaldehyde; diluted refolded VHH as primary antibody, mouse anti-His tag, then Alexa Fluor 488 goat anti-mouse IgG; uninfected Sf9 cells as mock; details: one partner purified
# T2 construct: Spike (S) protein of porcine epidemic diarrhea virus strain PEDV-JSXH-2021; band of approximately 180 kDa on the blot; the plasmid was synthesised; also called PEDV S protein expressed in Sf9 cells; source: Sf9 cells infected with recombinant baculovirus rBV-PEDV-S; in fixed cells and in supernatant of sonicated cells; not shown: 3xFLAG, C-terminal, kept
# [3] = target: T1, PEDV S protein of strain PEDV-JSXH-2021 …; assay: immunostaining of cells or tissue; IFA on Vero E6 cells infected with PEDV-JSXH-2021 (MOI 0.01, 48 h), fixed with 4% paraformaldehyde; purified VHH as primary antibody overnight at 4 °C, mouse anti-His tag, then Alexa Fluor 555 goat anti-mouse IgG; uninfected cells as mock; details: one partner purified
# [4] = target: T3, PEDV spike (S) protein, strain PEDV-JSXH-2021, bait pGBKT7-PEDV-S (Porcine epidemic diarrhea virus, …, UniProt Q91AV1, strain); assay: two-hybrid; yeast AH109; bait in pGBKT7, prey in pGADT7; growth on SD-TL, SD-TLH, SD-TLHA and blue colour on SD-TLHA + X-α-gal, 30 °C, 3–4 days; positive clones verified again after the library screen; details: partners not purified
# T3 construct: Spike (S) protein of porcine epidemic diarrhea virus strain PEDV-JSXH-2021 (G1b type); source: yeast two-hybrid fusion (AH109)
Binder,"concentration of VHH that completely neutralises infection of Vero E6 cells by PEDV-JSXH-2021 (serial dilutions from 200 ng/µL, read by IFA after 5 to 7 days) [1] [ng/µL]",further results
"VHH1–4 (recombinant, pcDNA3.1-VHH, 6 × His) (VHH) VHH: QVQLQESGGGLVQAGGSLRLSCAASGTIFCYGGMGWYRQAPGKERELVAGITMGTSTNYADSVKGRFTISRDNAKNTVYLQMNSLKPEDTAVYYCAAAVMVAGPYQSWHGYWGQGTQVTVSS",100,–
"VHH1–89 (recombinant, pcDNA3.1-VHH, 6 × His) (VHH) VHH: QVQLQESGGGLVQAGGSLRLSCAASGYISDAYYMGWYRQAPGKEREFVATITHGTNTYYADSVKGRFTISRDNAKNTVYLQMNSLKPEDTAVYYCAVFLARIASFLPILLISLRYWGQGTQVTVSS",12.5,–
"VHH1–41 (recombinant, pcDNA3.1-VHH, 6 × His) (VHH) VHH: QVQLQESGGGLVQAGGSLRLSCAASGSIFTFVRMGWYRQAPGKERELVAGIAIGSITYYADSVKGRFTISRDNAKNTVYLQMNSLKPEDTAVYYCAAQSVQKAETTSPFAYWGQGTQVTVSS",25,–
"VHH1–15 (recombinant, pcDNA3.1-VHH, 6 × His) (VHH, same VHH as m2; also called PEDV S-VHH; not shown: His6, C-terminal, kept) VHH: QVQLQESGGGLVQAGGSLRLSCAASGYISDAYYMGWYRQAPGKEREFVATITHGTNTYYADSVKGRFTISRDNAKNTVYLQMNSLKPEDTAVYYCAVLETRSYSFRYWGQGTQVTVSS",–,binding result [2]: binds; binding result [3]: binds
"VHH1–15 (pGADT7-VHH library clone) (VHH, clone from a synthetic nanobody yeast library; also called PEDV S-VHH; source: yeast two-hybrid fusion (AH109)) VHH: QVQLQESGGGLVQAGGSLRLSCAASGYISDAYYMGWYRQAPGKEREFVATITHGTNTYYADSVKGRFTISRDNAKNTVYLQMNSLKPEDTAVYYCAVLETRSYSFRYWGQGTQVTVSS",–,binding result [4]: binds
"VHH2–77 (recombinant, pcDNA3.1-VHH, 6 × His) (VHH) VHH: QVQLQESGGGLVQAGGSLRLSCAASGYISDAYYMGWYRQAPGKEREFVATITHGTNTYYADSVKGRFTISRDNAKNTVYLQMNSLKPEDTAVYYCAVFSTISVNIYTFLYVIFFYWGQGTQVTVSS",12.5,–
"VHH2–50 (recombinant, pcDNA3.1-VHH, 6 × His) (VHH) VHH: QVQLQESGGGLVQAGGSLRLSCAASGYISDAYYMGWYRQAPGKEREFVATITHGTNTYYADSVKGRFTISRDNAKNTVYLQMNSLKPEDTAVYYCAALFSIIVYYFSNSNLVFNYWGQGTQVTVSS",25,–
"VHH2–18 (recombinant, pcDNA3.1-VHH, 6 × His) (VHH) VHH: QVQLQESGGGLVQAGGSLRLSCAASGYISDAYYMGWYRQAPGKEREFVATITHGTNTYYADSVKGRFTISRDNAKNTVYLQMNSLKPEDTAVYYCAASSLRKVLMTQLPTRLYYYWGQGTQVTVSS",50,–
"VHH2–28 (recombinant, pcDNA3.1-VHH, 6 × His) (VHH) VHH: QVQLQESGGGLVQAGGSLRLSCAASGSISLHPQMGWYRQAPGKERELVAGIATGGNTNYADSVKGRFTISRDNAKNTVYLQMNSLKPEDTAVYYCAVNEYHPRAMYALYIYWGQGTQVTVSS",50,–
